B1: Retinoic acid receptor RXR-alpha, residues 132 to 208; numbered along this chain, P19793 (parent)
chain: KHICAICGDRSSGKHYGVYSCEGCKGFFKRTVRKDLTYTCRDNKDCLIDKRQRNRCQYCRYQKCLAMGMKREAVQEE

Variants of: B1
Assay: abundance fitness (aPCA) (normalised: wild type 0, dead -1); higher = more abundant; growth selection in yeast, the domain comes from the species named
Details: Homo sapiens

Abundance fitness, by site and new letter:
G26: V 0.007, S -0.087, Q 0.038, M -0.071, A 0.002, Y -0.081, P -0.503, E -0.043, H -0.021, W -0.052, L -0.132, I -0.116, N -0.123, F -0.138, D 0.024, R -0.018, C -0.077
F27: S 0.004
C21: I -1.12, T -1.05, Q -1.02, F -0.962, H -0.933, P -0.9, S -0.98, A -1.07, D -0.413, Y -0.676, M -0.827, G -0.956, E -0.845, W -1.03, N -0.803, L -0.986
G17: F -0.088, D 0.031, I -0.275, L -0.107, A -0.106, E 0.005, P -0.277, K -0.085, M 0.025, S -0.029, Y -0.1, H -0.053, Q -0.089, C -0.002, W -0.163, R -0.095, N 0.056
V32: Y -0.079, T 0.024, K -0.012, F 0, G -0.046, Q -0.017, N 0.015, S -0.085, R -0.171, H -0.064, A -0.013, P -0.298, I -0.083, E 0.026, W -0.211
K29: H -0.074, C -0.223, L 0.009, P -0.531, D -0.013, E 0.028, S -0.059, G 0.025, V 0.054, A 0.05, R -0.003, M 0.038, N 0.027, W 0.003, T 0.021, I -0.163, F -0.035

Source: the Human Domainome abundance scans (Beltran et al. 2025)
